In patent publication US20150258192A1, “COMPOSITIONS AND METHODS FOR PREVENTING OR TREATING CHRONIC LUNG ALLOGRAFT DYSFUNCTION (CLAD) AND IDIOPATHIC PULMONARY FIBROSIS (IPF)” (priority 2014, published 2015):
No end group written: not given here.

Assays:
Assay in all cases: Kinase Profiling Assay
Assay type in all cases: biochemical
Conditions in all cases: peptide 100 μM
p70S6K(h) = target: T1, p70S6K(h) (Homo sapiens, UniProt P23443)
T1 construct: purchased Millipore
Method in brief: (§1)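 Scintillation counting quantifies radiolabeled, positively charged substrate retained on a negatively charged filter after kinase reaction with labeled ATP; inhibitor peptide present.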

cKit(D816V)(h) = cKit(D816V)(h) (Homo sapiens, UniProt P10721, D816V)
Method in brief: as §1

PKCγ(h) = PKCγ(h) (Homo sapiens, UniProt P05129)
Method in brief: as §1

Ret(h) = Ret(h) (Homo sapiens, UniProt P07949)
Method in brief: as §1

Met(D1246N)(h) = target: T2, Met(D1246N)(h) (Homo sapiens, UniProt P08581, D1228N)
T2 construct: purchased Millipore
Method in brief: as §1

PKCι(h) = target: T3, PKCι(h) (Homo sapiens, UniProt P41743)
T3 sequence (P41743 1-596): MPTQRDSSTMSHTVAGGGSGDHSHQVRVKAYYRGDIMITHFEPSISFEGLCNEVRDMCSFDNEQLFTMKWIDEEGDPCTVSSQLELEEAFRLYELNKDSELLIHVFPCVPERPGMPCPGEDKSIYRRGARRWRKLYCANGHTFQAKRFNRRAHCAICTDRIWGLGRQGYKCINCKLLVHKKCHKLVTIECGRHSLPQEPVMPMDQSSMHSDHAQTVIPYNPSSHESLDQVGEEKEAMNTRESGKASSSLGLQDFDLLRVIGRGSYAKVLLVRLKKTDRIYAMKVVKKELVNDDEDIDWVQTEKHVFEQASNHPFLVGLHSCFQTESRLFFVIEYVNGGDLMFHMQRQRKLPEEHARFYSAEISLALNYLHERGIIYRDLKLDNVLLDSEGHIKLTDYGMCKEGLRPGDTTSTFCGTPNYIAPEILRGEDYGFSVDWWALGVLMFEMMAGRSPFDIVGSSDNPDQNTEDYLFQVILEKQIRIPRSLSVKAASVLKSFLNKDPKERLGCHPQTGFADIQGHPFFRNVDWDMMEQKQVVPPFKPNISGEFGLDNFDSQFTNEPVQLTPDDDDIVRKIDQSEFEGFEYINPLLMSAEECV
Method in brief: as §1

MSK2(h) = target: T4, MSK2(h) (Homo sapiens, UniProt O75676)
T4 construct: purchased Millipore
Method in brief: as §1

IRAK4(h) = target: T5, IRAK4(h) (Homo sapiens, UniProt Q9NWZ3)
T5 construct: purchased Millipore
T5 sequence (Q9NWZ3 1-460): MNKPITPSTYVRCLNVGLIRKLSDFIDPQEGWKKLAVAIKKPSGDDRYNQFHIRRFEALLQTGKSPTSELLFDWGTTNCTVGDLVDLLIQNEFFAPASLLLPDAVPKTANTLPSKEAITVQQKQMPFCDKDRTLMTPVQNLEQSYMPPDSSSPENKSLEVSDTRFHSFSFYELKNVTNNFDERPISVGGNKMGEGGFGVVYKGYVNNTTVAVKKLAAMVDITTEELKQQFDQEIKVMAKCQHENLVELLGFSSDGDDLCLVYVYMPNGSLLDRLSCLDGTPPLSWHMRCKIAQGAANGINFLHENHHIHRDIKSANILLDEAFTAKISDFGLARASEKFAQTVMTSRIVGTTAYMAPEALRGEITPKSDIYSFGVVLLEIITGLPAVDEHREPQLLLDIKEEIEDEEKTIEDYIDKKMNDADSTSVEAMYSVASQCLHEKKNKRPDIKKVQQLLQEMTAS
Method in brief: as §1

EphA2(h) = EphA2(h) (Homo sapiens, UniProt P29317)
Method in brief: as §1

Bmx(h) = target: T6, Bmx(h) (Homo sapiens, UniProt P51813)
T6 sequence (P51813 1-675): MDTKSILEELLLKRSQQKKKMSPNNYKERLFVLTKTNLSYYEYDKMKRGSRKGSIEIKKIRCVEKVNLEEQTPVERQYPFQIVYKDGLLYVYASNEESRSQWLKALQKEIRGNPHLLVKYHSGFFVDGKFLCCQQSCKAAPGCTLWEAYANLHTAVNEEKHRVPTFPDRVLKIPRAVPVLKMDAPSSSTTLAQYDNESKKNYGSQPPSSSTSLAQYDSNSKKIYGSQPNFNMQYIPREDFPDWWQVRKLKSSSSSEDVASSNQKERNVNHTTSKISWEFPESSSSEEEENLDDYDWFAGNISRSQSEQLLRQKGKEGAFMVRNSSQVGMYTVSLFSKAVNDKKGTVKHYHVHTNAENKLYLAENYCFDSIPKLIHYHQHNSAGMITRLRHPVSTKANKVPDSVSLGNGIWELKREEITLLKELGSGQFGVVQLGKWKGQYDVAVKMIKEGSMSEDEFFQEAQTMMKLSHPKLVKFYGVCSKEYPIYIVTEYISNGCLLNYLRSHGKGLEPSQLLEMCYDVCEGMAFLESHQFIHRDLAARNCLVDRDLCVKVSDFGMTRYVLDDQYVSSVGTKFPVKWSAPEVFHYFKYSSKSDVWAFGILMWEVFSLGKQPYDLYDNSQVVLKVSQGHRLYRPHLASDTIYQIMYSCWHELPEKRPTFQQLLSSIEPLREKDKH
Method in brief: as §1

Met(Y1248H)(h) = target: T7, Met(Y1248H)(h) (Homo sapiens, UniProt P08581, Y1230H)
T7 construct: purchased Millipore
Method in brief: as §1

MAPK1(h) = target: T8, MAPK1(h) (Homo sapiens, UniProt P27361)
T8 construct: purchased Millipore
Method in brief: as §1

T8 sequence (P27361 whole entry): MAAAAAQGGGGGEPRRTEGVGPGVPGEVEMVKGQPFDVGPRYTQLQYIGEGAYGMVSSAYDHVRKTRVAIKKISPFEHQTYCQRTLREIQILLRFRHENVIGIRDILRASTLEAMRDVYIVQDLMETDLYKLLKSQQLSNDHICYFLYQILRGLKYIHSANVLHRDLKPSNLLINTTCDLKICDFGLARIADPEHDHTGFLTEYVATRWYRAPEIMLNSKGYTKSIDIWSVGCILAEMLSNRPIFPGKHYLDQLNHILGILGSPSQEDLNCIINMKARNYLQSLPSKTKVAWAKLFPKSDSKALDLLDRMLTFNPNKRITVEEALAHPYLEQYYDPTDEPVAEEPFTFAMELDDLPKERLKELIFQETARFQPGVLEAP
T1 sequence (P23443 whole entry): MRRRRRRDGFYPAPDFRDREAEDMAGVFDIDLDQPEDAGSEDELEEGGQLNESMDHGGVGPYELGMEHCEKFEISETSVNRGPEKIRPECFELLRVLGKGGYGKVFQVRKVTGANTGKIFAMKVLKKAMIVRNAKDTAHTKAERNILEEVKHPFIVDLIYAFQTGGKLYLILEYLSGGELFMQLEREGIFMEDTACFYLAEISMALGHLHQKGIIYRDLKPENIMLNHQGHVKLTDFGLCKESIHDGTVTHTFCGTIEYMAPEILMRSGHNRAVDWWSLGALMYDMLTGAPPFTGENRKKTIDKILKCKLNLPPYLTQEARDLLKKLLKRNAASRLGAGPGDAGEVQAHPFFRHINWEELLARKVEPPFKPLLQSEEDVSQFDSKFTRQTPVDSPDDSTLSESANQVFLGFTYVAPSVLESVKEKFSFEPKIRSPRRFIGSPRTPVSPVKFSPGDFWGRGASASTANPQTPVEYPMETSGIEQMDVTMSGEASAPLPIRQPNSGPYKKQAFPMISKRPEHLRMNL
T4 sequence (O75676 whole entry): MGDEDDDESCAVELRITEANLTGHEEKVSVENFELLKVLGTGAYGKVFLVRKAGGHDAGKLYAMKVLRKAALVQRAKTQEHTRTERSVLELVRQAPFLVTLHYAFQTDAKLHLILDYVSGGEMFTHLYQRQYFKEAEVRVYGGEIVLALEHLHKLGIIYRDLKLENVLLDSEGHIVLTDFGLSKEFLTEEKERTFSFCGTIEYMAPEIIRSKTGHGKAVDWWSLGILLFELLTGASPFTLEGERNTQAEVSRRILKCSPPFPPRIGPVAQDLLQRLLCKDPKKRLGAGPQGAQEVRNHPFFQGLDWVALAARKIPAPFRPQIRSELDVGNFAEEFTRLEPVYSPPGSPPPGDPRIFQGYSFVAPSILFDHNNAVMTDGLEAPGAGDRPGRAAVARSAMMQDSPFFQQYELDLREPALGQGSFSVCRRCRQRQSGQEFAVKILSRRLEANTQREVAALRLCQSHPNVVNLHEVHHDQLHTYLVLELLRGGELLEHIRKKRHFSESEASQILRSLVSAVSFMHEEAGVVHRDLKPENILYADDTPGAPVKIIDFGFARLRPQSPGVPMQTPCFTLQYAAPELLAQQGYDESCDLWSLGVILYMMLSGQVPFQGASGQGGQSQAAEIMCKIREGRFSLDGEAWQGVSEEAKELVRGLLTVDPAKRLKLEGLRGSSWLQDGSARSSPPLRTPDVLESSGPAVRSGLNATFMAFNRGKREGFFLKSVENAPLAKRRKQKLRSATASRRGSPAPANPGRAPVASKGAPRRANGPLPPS

Row | Sequence | % activity (p70S6K(h)) | % activity (cKit(D816V)(h)) | % activity (PKCγ(h)) | % activity (Ret(h)) | % activity (Met(D1246N)(h)) | % activity (PKCι(h)) | % activity (MSK2(h)) | % activity (IRAK4(h)) | % activity (EphA2(h)) | % activity (Bmx(h)) | % activity (Met(Y1248H)(h)) | % activity (MAPK1(h))
1 | FAKLAARLYRKALARQLGVAA [MMI-0300] | 35% | 60% | 89% | 140% | 82% | 68% | 56% | 59% | 31% |  |  | 
2 | HRRIKAWLKKIKALARQLGVAA (Mammal) [MMI-0500] | 3% | 30% | 6% | 174% | 90% | 7% | 14% | 3% |  | 45% | 126% | 
3 | KAFAKLAARLYRKALARQLGVAA [MMI-0400] | 33% | 35% | 79% | 145% | 31% | 46% | 52% | 59% | 17% | 26% | 63% | 100%
4 | YARAAARQARAKALARQLGVAA [MMI-0100] | 89% |  |  | 108% |  | 110% |  |  |  | 62% | 88% | 108%
5 | YARAAARQARAKALNRQLGVA (Mammal) [MMI-0200] | 84% | 118% | 101% | 96% | 149% | 97% | 88% | 110% | 95% | 76% | 153% | 97%
